From US20050192211A1 (Merck KGaA, published 2005)

Biological target: T1, EPO receptor (UniProt P19235 25-508, limits assumed)
T1 sequence (looked up): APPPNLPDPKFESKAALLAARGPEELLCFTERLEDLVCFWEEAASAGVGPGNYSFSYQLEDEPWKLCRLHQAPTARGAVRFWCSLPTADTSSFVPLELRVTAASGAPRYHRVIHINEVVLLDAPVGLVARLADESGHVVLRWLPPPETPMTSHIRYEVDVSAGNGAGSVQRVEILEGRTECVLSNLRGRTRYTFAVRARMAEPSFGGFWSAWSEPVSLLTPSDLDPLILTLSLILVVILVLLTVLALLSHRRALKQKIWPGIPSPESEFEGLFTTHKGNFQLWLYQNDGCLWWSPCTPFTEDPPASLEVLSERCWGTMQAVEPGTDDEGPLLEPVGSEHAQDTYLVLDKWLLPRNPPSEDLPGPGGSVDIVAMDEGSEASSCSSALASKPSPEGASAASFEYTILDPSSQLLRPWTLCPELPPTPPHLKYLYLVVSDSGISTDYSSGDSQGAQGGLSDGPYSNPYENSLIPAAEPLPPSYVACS
Experiment: cell-based or functional assay

ED50, TF-1 cell proliferation (3H-thymidine incorporation); S.D. 0.96; N 10: 2.4 ng/mL
Substance: EPO (Aranesp®) (ligand)
